{"source": "patent US7384773", "about": "(Pfizer, dated 2008)", "target": "T1, CHO cell expressed recombinant human beta secretase proteolytically cleaved with HIV protease (human, UniProt P56817 61-453, glycosylated (CHO cell expressed))", "T1 construct": "N-terminus at V40 after cleavage of the F39-V40 bond; The transmembrane and cytoplasmic domains are deleted; also called HIV protease treated beta secretase; processed enzyme", "T1 sequence (P56817 other isoform, or with tags, fused parts or gaps)": "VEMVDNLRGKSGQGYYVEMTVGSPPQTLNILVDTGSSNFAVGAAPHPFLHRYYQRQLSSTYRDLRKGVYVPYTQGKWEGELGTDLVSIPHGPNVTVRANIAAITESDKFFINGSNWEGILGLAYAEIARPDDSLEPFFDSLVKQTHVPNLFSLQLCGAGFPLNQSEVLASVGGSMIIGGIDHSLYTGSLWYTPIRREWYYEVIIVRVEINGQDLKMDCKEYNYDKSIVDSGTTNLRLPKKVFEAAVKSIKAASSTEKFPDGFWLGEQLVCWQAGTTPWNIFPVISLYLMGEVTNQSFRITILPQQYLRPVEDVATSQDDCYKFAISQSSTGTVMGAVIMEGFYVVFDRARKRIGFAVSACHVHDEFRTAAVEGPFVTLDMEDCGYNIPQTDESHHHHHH", "experiment": "affinity chromatography, peptide immobilised on resin", "note": "Non-standard residues stand in square brackets, D forms with d. No end group written: not given here. Sta = CC(C)C[C@H](N)[C@@H](O)CC(=O)O"}
{"binder": "SEVN[Sta]VAEFRGGC (also: coupled to Sulfolink resin (via Cys))", "note": "[synthetic peptide Ser-Glu-Val-Asn-Sta-Val-Ala-Glu-Phe-Arg-Gly-Gly-Cys (Sta=statine)]", "values": [{"measurement": "binding result", "result": "binds"}]}
